The target of the assay is T1, Human fibrinogen (Sigma), biotinylated (human, UniProt P02671 20-629; P02675 31-491; P02679 27-437).
T1 construct: also called biotinylated fibrinogen
T1 sequence 1: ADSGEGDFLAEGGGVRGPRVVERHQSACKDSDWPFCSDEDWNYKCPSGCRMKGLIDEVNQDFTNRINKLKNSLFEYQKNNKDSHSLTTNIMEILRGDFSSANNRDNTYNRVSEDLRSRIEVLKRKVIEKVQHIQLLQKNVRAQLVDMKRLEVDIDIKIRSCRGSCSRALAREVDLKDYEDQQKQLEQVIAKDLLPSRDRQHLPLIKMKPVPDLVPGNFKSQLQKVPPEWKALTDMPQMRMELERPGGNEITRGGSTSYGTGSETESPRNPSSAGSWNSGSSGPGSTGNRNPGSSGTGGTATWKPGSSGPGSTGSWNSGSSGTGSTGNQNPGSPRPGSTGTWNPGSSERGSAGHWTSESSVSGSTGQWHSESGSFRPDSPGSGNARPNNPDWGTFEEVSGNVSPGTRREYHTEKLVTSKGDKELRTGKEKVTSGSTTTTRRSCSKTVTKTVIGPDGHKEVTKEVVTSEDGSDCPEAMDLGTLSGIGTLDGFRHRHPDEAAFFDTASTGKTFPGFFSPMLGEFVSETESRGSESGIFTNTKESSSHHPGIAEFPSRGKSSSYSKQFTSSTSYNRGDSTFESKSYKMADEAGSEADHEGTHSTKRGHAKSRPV
T1 sequence 2: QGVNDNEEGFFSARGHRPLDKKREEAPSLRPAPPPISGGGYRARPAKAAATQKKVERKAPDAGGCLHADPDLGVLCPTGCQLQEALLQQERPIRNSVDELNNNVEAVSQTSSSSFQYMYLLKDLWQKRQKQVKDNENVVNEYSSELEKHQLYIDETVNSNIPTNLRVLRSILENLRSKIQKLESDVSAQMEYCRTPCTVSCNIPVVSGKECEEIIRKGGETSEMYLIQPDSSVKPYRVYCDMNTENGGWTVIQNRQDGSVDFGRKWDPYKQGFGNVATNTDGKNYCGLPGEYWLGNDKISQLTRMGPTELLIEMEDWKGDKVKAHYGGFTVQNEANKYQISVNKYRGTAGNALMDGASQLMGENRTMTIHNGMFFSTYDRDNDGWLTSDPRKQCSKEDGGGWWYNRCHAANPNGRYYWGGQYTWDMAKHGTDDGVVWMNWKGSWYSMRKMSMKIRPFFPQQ
T1 sequence 3: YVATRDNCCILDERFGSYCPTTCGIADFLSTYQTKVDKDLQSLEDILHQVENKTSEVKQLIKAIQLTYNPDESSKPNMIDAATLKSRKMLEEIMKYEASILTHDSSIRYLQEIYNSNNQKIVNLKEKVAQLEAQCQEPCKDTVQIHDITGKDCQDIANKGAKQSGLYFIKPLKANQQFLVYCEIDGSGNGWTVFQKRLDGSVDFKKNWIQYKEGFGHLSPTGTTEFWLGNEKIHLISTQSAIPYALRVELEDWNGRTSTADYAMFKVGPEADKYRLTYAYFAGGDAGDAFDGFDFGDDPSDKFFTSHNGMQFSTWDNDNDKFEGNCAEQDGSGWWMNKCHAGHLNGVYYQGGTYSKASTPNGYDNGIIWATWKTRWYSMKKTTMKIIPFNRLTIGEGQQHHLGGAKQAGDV
Nature of the assay: fibrinogen binding of expressed peptides (data not shown).

B1: S. iniae strain QMA136 M protein C-terminal amino acid sequence (309 amino acid peptide expressed from isolate QMA0136) (other)
chain: MAEIQEEANKKIAAVQTELENIDSENQSLSTANEQLKADLEQAARELDTLQSSYYTVENEKAELQKQLAEKDAKIAELEANNTELTATVADLTKALEAAKKEAEEKPALKAKVAELEKALAEAKGLGTKVAELEKDLEKAQAEAKDLETKLAETKAELEKVQAEKAELEATIEKMKKEHAEELDKLNALLADKEKLVEALNKEIEALKKDFDEKSNHSAQEKAKFQEELERLKKELAAKINMPMGNTKGMANAAGNAQTPANNGQNNAVKNQLPSTGDKAGNPFFTASAIAVMVGAGTLAYGRKRKEEE
notes: The expression construct is not described; also called QMA136 C-terminal fragment
As to B1, the binding result is reported as “no binding”.

(Values after patent publication US20100215684A1 (UNIVERSITY OF QUEENSLAND, published 2010).)
